From patent US12226490B2, “Anti-ROR1 antibody conjugates, compositions comprising anti ROR1 antibody conjugates, and methods of making and using anti-ROR1 antibody conjugates preliminary class” (Sutro Biopharma, Inc., priority 2022, dated 2025)
Residue numbers refer to the chain shown, from its start.

B1: SRP2196-B04 (antibody, V domains shown)
VH: EVQLVESGGGLVQPGGSLRLSCAASGFNITEYYIHWVRQAPGKGLEWVGYISPNSGATYQADSVKGRFTISADTSKNTAYLQMNSLRAEDTAVYYCARDSRRYVRGWDYWGQGTLVTVSS
VL: QAVVTQESALTTSPGETVTLTCRSSTGAVTTSNYANWVQEKPDHLFTGLIGGTNKRAPGVPARFSGSLIGDKAALTITGAQTEDEAIYFCALWYSNLWVFGGGTKLTVL
B2: SRP2196-C03 (antibody, V domains shown)
VH: B1 VH with E31G, Y50Q, A57S, Q60S, N84S, R105L, G106S
VL: B1 VL
B3: SRP2196-B10 (antibody, V domains shown)
VH: B1 VH with E31G, Y50S, S52T, N54L, Y59S, Q60K, V104I, G106S
VL: B1 VL
B4: SRP2196-B11 (antibody, V domains shown)
VH: B1 VH with E31G, K43R, Y50Q, A57Y, Q60Y, V104I, G106S
VL: B1 VL
B5: SRP2196-B09 (antibody, V domains shown)
VH: B1 VH with G15E, A57S, Q60Y, G106S
VL: B1 VL
B6: SRP2196-C02 (antibody, V domains shown)
VH: B1 VH with E31G, Y33H, Y50F, A57W, Q60S, G106P, W107F
VL: B1 VL
B7: SRP2196-C01 (antibody, V domains shown)
VH: B1 VH with T30I, E31G, Y50S, S52T, N54L, Y59S, Q60K, V104I, G106S
VL: B1 VL
B8: SRP2196-C04 (antibody, V domains shown)
VH: B1 VH with E31G, Y50F, S52A, N54L, A57S, Y59H, Q60N, D99E, R105N, G106P
VL: B1 VL
B9: SRP2196-B08 (antibody, V domains shown)
VH: B1 VH with E31G, Y50Q, A57Y, Q60L
VL: B1 VL
B10: SRP2196-B06 (antibody, V domains shown)
VH: B1 VH with E31G, Y50Q, A57S, Q60S, R105L, G106S
VL: B1 VL

Tests used:
[1] = tested on: ROR1 positive Ntera-2 cell; assay: In vitro cell killing of ROR1 ADCs, ROR1 positive cells (Cell Titer-Glo, 120 hours); assay type: cell-based, human; settings: Table 13
Text: (§1) Ntera-2, MDA-MB-231, MCF7, HCT116 and Mino cells were obtained from ATCC. HCT116-hRor1-D02 clone was generated by transfecting HCT116 cells with a plasmid containing human Ror1 cDNA sequence and selected for highest stable expression of hRor1 on the cell surface. MDA-MB-231, MCF7, HCT116 and HCT116-Ror1 cell were maintained in Ham's F-12 high glucose DMEM (50-50) (Cellgro-Mediatech; Manassas, VA) supplemented with 10% heat-inactivated fetal bovine serum (Hyclone; Thermo Scientific; Waltham, MA), 1% Penicillin/Streptomycin (Cellgro-Mediatech; Manassas, VA) and 2 mmol/L-glutamax (Life Technology; Carlsbad, CA). Mino cells were maintained in RPMI-1640 medium (Cellgro-Mediatech; Manassas, VA) supplemented with 20% heat-inactivated fetal bovine serum (Hyclone; Thermo Scientific; Waltham, MA), 1% Penicillin/Streptomycin (Cellgro-Mediatech; Manassas, VA) and 2 mmol/L-glutamax (Life Technology; Carlsbad, CA).
(§2) Anti-ROR1 antibody was conjugated to different linker-warheads described herein at different DARs and the cell killing activity of the ADCs were evaluated on ROR1 positive Ntera-2 cell and ROR1 negative MCF7 cells.
(§3) Ntera-2 or MCF7 cell at 625 cells/25 μL were seeded in a 384-well flat bottom white polystyrene plate one day before the assay start. ADCs were formulated at 2× starting concentration. Filter sterilized samples were serial diluted (1:3) under sterile conditions and added onto cells in triplicates. Plates were cultured at 37° C. in a CO2 incubator for 120 hours. […] Relative luminescence was measured on an ENVISION® plate reader (Perkin-Elmer; Waltham, MA). Relative luminescence readings were converted to % viability using untreated cells as controls. […]
(§4) To evaluate if the cell killing activity of anti-ROR1 ADCs is dependent on antibody binding to ROR1 expressed on cell surface, the same linker-warheads (LP3, LP4) were conjugated to an anti-GFP antibody and the cell killing of the anti-ROR1 and anti-GFP ADCs were evaluated in cell killing assays on ROR1 positive Ntera-2 cell and ROR1 negative MCF7 cells.

[2] = tested on: ROR1 negative MCF7 cells; assay: In vitro cell killing of ROR1 ADCs, ROR1 negative cells (Cell Titer-Glo, 120 hours); assay type: cell-based, human; settings: Table 13
Text: as §1, §2, §3, §4

[3] = Differential scanning fluorimetry (protein thermal shift; TM1 Fc, TM2 Fab); assay type: physicochemical; settings: melting temperature of the Fab domain; Table 11
Experimental: A protein thermal shift assay was carried out by mixing the protein to be assayed with an environmentally sensitive dye (SYPRO Orange, Life Technologies Cat #S-6650) in a phosphate buffered solution (PBS), and monitoring the fluorescence of the mixture in real time as it underwent controlled thermal denaturation. Protein solutions between 0.2-2 mg/mL were mixed at a 1-1 volumetric ratio with a 1-500 PBS-diluted solution of SYPRO Orange (SYPRO Orange stock dye is 5000× in DMSO). 10 μL aliquots of the protein-dye mixture were dispensed in quadruplicate in a 384-well microplate (Bio-Rad Cat #MSP-3852), and the plate was sealed with an optically clear sealing film (Bio-Rad Cat #MSB-1001) and placed in a 384-well plate real-time thermocycler (Bio-Rad CFX384 Real Time System). The protein-dye mixture was heated from 25° C. to 95° C., at increments of 0.1° C. per cycle (˜1.5° C. per minute), allowing 3 seconds of equilibration at each temperature before taking a fluorescence measurement. At the end of the experiment, the transition melting temperatures (TM1 and TM2) were determined using the Bio-Rad CFX manager software. TM1 represents the melting temperature of the Fc domain. TM2 represents the melting temperature of the Fab domain.
For the thermal stability of an antibody, the first melting peak (Tm1) coincides with the unfolding of the CH2 domain (FC stability), while the second melting peak (Tm2) occurs upon unfolding of the Fab domain.

[4] = target: T1, human ROR1-Fz (Homo sapiens, UniProt Q01973); assay: Biacore off-rate and kinetic analysis, ROR1 frizzled domain; assay type: binding; settings: Table 11 (SP34 light chain)
T1 construct: Frizzled (Fz, residues 165-305); HIS6 (C); purchased Acro Biosystems; host or cells: HEK293
Experimental: Anti-Fc polyclonal antibodies were immobilized onto a CM5 chip (GE Life Sciences) using amine coupling chemistry (from Amine Coupling Kit, GE Life Sciences). The immobilization steps were carried out at a flow rate of 25 μL/min in 1×HBS-EP+ buffer (GE Life Sciences; 10× Stock diluted before use). The sensor surfaces were activated for 7 min with a mixture of NHS (0.05 M) and EDC (0.2 M). The Anti-Fc antibodies were injected over all 4 flow cells at a concentration of 25 ug/ml in 10 mM sodium acetate, pH 4.5, for 7 min. Ethanolamine (1 M, pH 8.5) was injected for 7 min to block any remaining activated groups. An average of 12,000 response units (RU) of capture antibody was immobilized on each flow cell.
Off-rate and kinetic binding experiments were performed at 25° C. using 1×HBS-EP+ buffer. Test and control antibodies were injected over the anti-Fc surface at concentrations of 5-10 μg/mL for 12 seconds at a flow rate of 10 μL/min on flow cells 2, 3 and 4, followed by a buffer wash for 30 seconds at the same flow rate. Kinetic characterization of antibody samples was carried out with a range of antigen concentrations from 1-100 nM and 1 injection of 0 nM antigen (for example, 100, 50, 25, 6.25, 1.56 and 0 nM). After capturing ligand (antibody) on the anti-Fc surface, the analyte (hROR1, Fz or Kr domains, Acro Biosystems, Delaware) was bound for 180 seconds, followed by a 600 second dissociation phase at a flow rate of 50 μL/min. Between each ligand capture and analyte binding cycle, regeneration was carried out using 2 injections of 10 mM Glycine pH 2.0 for 30 seconds at 30 μL/min, followed by a 30 second buffer wash step.
The data was fit with the Biacore T200 Evaluation software, using a 1-1 Langmuir binding model. KD (affinity, nM) was determined as a ratio of the kinetic rate constants calculated from the fits of the association and dissociation phases.
For anti-CD3-LC-containing IgGs that had detectable ROR1-binding in ELISA (1944-A07 and 1987-C05 variants), those antibodies were further tested for binding by surface plasmon resonance (SPR). Binding kinetics were assessed to the ROR1-frizzled domain (hROR1-Fz) or the ROR1-extracellular domain (hROR1) for 1944-A07 and 1987-C05 variants, respectively. Briefly, anti-ROR1 antibodies were captured via anti-human Fc polyclonal antibodies immobilized to a CM5 chip, and ROR1 recombinant proteins were flowed across the surface to assess binding kinetics. hROR1 or hROR1-Fz domain (Acro Biosystems, Delaware) binding was tested at 100, 50, 25, 6.25, 1.5625 nM. The data was fit with the Biacore™ T200 Evaluation software, using a 1-1 Langmuir binding model. KD (affinity, nM) was determined as a ratio of the kinetic rate constants calculated from the fits of the association and dissociation phases.

T1 sequence (Q01973 165-305): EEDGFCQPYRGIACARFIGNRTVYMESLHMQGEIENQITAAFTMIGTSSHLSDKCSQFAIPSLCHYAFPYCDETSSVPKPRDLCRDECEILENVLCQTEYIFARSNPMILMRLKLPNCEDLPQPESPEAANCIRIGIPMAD

Row | Molecule | NTERA-2 Span [1] [%] | MCF-7 Span [2] [%] | TM2 [3] [°C] | Biacore human ROR1-Fz ka [4] [M⁻¹ s⁻¹] | Biacore human ROR1-Fz kd [4] [s⁻¹]
1 | COc1cccc2c1C(=O)c1c(O)c3c(c(O)c1C2=O)C[C@@](O)(C(=O)NCCN)C[C@@H]3O[C@H]1C[C@H]2[C@H](O[C@@H]3[C@@H](OC)OCCN32)[C@H](C)O1 [PNU-EDA] | 99 | 85 |  |  | 
2 | CC[C@@]1(O)C(=O)OCc2c1cc1n(c2=O)Cc2c-1nc1cc(F)c(C)c3c1c2[C@@H](NC(=O)CO)CC3 [Dxd] | 99 | 63 |  |  | 
3 | B1 |  |  | 72 | 127000 | 0.000352
4 | B2 |  |  | 69 | 143000 | 0.000461
5 | B3 |  |  | 70 | 128000 | 0.000334
6 | B4 |  |  | 74 | 137000 | 0.000597
7 | B5 |  |  | 72 | 130000 | 0.000427
8 | B6 |  |  | 67 | 119000 | 0.00036
9 | B7 |  |  | 70 | 125000 | 0.000457
10 | B8 |  |  | 70 | 131000 | 0.000704
11 | B9 |  |  | 75 | 156000 | 0.000488
12 | B10 |  |  | 70 | 142000 | 0.000423
